Results from paper PMC10035497, “Structures of Cancer Antigen Mesothelin and Its Complexes with Therapeutic Antibodies” (Cancer Research Communications, 2023).

Biological target: T1, C-terminal shedding-resistant peptide of MSLN (residues 582-598) (human, UniProt Q13421-3)
T1 construct: Mesothelin, human, 17-residue peptide I582 to S598, holds most of the major sheddase cleavage sites; numbers count on: the 622-residue precursor, isoform Q13421-3; also called C-terminal peptide; 17-residue peptide; source: synthetic peptide (GenScript)
T1 chain: IPNGYLVLDLSMQEALS
Test: crystal structure; synthetic peptide 582-598 mixed with Fab(15B6) at a molar ratio of 3:1 in 20 mmol/L Tris, 100 mmol/L NaCl, pH 7.5, overnight at 4°C; 1.74 Å
Conditions: both partners purified

binding result: binds
B1: Fab fragment of mAb 15B6 (Fab, V domains shown)
VH: EVQLQQSGPVLVKPGASVKISCKASGYSFTGYYMHWVRQSNGKSLEWIGRINPYTGVPSYKHNFKDKASLTVDKSSSTAYMELHSLTSEDSAVYYCARELGGYWGQGTTLTVSS
VL: QAVVTQESALTTSPGETVTLTCRSSTGAVTTGNYPNWVQEKPDHLFTGLIAGTNNRAPGVPARFSGSLIGDKAALTITGAQTEDEAIYFCALWFSSHWVFGGGTKLTVL
notes: heavy chain of the Fab in PDB 7U8C (214 residues modelled); mouse IgG2b; light chain of the Fab in PDB 7U8C (213 residues modelled); mouse lambda; mouse isotype IgG2b lambda; raised against the peptide I582-S598; also called Fab(15B6); Fab of Mab 15B6; source: mAb 15B6 obtained from GenScript, digested with immobilised papain, Fc removed on Protein A
